Assay results published in the supplement of paper PMC10567573.

B1: KRT33B (parent)
chain: YQSYFKTIEELQQKILCSKSENAR

Variants of: B1
Experiment: protein stability index of a GFP-peptide fusion (GPS, HEK-293T) (PSI 1-6); higher = more stable
Conditions: c terminus: a fixed tail appended
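Further: lentivirally expressed fusions sorted by FACS into six bins by GFP to DsRed ratio, PSI derived from sequencing read proportions per bin multiplied by bin number.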

In order of rising protein stability index:
1. YQSYFKTIEELQQGILCSKSENAR  1.25
2. YQSYFKTIEELQCKILCSKSENAR  1.3
3. YQSYFKTIEELQIKILCSKSENAR  1.35
4. YQSYFKTIEELQQKILFSKSENAR  1.39
5. YQSYFKTIEELQMKILCSKSENAR  1.4
6. YQSYFKTIEELQQKIYCSKSENAR  1.41
7. YQSYFKTIEEKQQKILCSKSENAR  1.42
8. YQSYFKTIEELQQPILCSKSENAR  1.45
9. YQSYFKTIEELMQKILCSKSENAR  1.53
10. YQSYFKTIEECQQKILCSKSENAR  1.53
11. YQSYFKTIEELQQAILCSKSENAR  1.53
12. YQSYFKTIEELQQKILWSKSENAR  1.53
13. YQSYFKTIEELQQKILCSLSENAR  1.54
14. YQSYFKTIEELQQKITCSKSENAR  1.55
15. YQSYFKTIEELQDKILCSKSENAR  1.55
16. YQSYFKTIEELQQTILCSKSENAR  1.56
17. YQSYFKTIEELCQKILCSKSENAR  1.58
18. YQSYFKTIEEMQQKILCSKSENAR  1.6
19. YQSYFKTIEELQQYILCSKSENAR  1.61
20. YQSYFKTIEELQQKILYSKSENAR  1.61
21. YQSYFKTIEERQQKILCSKSENAR  1.62
22. YQSYFKTIELLQQKILCSKSENAR  1.63
23. YQSYFKTIEELQQKKLCSKSENAR  1.64
24. YQSYFKTIESLQQKILCSKSENAR  1.65
25. YQSYFKTIEHLQQKILCSKSENAR  1.65
26. YQSYFKTIEELQYKILCSKSENAR  1.65
27. YQSYFKTIEELQQVILCSKSENAR  1.65
28. YQSYFKTIEELQQKILDSKSENAR  1.65
29. YQSYFKTIEILQQKILCSKSENAR  1.66
30. YQSYFKTIEELQQIILCSKSENAR  1.66
31. YQSYFKTIEMLQQKILCSKSENAR  1.67
32. YQSYFKTIEELQQKLLCSKSENAR  1.67
33. YQSYFKTIEELQRKILCSKSENAR  1.68
34. YQSYFKTIEELQQKILCFKSENAR  1.68
35. YQSYFKTIEELQQDILCSKSENAR  1.68
36. YQSYFKTIEELQQKILCSMSENAR  1.69
37. YQSYFKTIEELQQKVLCSKSENAR  1.7
38. YQSYFKTIEELQQKILCSFSENAR  1.7
39. YQSYFKTIEELQQNILCSKSENAR  1.7
40. YQSYFKTIEELQQKILSSKSENAR  1.7
41. YQSYFKTIEWLQQKILCSKSENAR  1.71
42. YQSYFKTIEELQQKWLCSKSENAR  1.71
43. YQSYFKTIEELQQKILCSISENAR  1.71
44. YQSYFKTIEEQQQKILCSKSENAR  1.71
45. YQSYFKTIWELQQKILCSKSENAR  1.71
46. YQSYFKTIECLQQKILCSKSENAR  1.72
47. YQSYFKTIEELQQKILCSASENAR  1.72
48. YQSYFKTIEELQQKILCSDSENAR  1.72
49. YQSYFKTIEELQQKILVSKSENAR  1.72
50. YQSYFKTIEELGQKILCSKSENAR  1.73
51. YQSYFKTIEELQQKIECSKSENAR  1.73
52. YQSYFKTIEELQQKYLCSKSENAR  1.73
53. YQSYFKTIEELQQKILCVKSENAR  1.73
54. YQSYFKTIEEFQQKILCSKSENAR  1.75
55. YQSYFKTIEELQQKILCSHSENAR  1.76
56. YQSYFKTIEELQQKILPSKSENAR  1.77
57. YQSYFKTIEELHQKILCSKSENAR  1.78
58. YQSYFKTIEELQVKILCSKSENAR  1.78
59. YQSYFKTIEELLQKILCSKSENAR  1.79
60. YQSYFKTIEELQAKILCSKSENAR  1.79
61. YQSYFKTIEEDQQKILCSKSENAR  1.79
62. YQSYFKTIEELQQKILCPKSENAR  1.79
63. YQSYFKTIEELQQKILCLKSENAR  1.79
64. YQSYFKTIEELPQKILCSKSENAR  1.8
65. YQSYFKTIEEYQQKILCSKSENAR  1.8
66. YQSYFKTIEELQQKELCSKSENAR  1.81
67. YQSYFKTIEELQQKTLCSKSENAR  1.81
68. YQSYFKTIEELQEKILCSKSENAR  1.81
69. YQSYFKTIEEIQQKILCSKSENAR  1.81
70. YQSYFKTIEELQQEILCSKSENAR  1.82
71. YQSYFKTIEELQPKILCSKSENAR  1.83
72. YQSYFKTIEELQQKINCSKSENAR  1.84
73. YQSYFKTIEELQQKILCSCSENAR  1.84
74. YQSYFKTIEESQQKILCSKSENAR  1.84
75. YQSYFKTIEELQQKILCHKSENAR  1.84
76. YQSYFKTIEELQQKIMCSKSENAR  1.85
77. YQSYFKTIEELQQKNLCSKSENAR  1.85
78. YQSYFKTIEELQKKILCSKSENAR  1.85
79. YQSYFKTIEETQQKILCSKSENAR  1.85
80. YQSYFKTIEELQSKILCSKSENAR  1.86
81. YQSYFKTIEELQQKILCKKSENAR  1.86
82. YQSYFKTIEELQQKIDCSKSENAR  1.87
83. YQSYFKTIETLQQKILCSKSENAR  1.87
84. YQSYFKTIEELQQKILGSKSENAR  1.87
85. YQSYFKTIEELQQKIQCSKSENAR  1.88
86. YQSYFKTIEELNQKILCSKSENAR  1.89
87. YQSYFKTIERLQQKILCSKSENAR  1.89
88. YQSYFKTIEELQQKILQSKSENAR  1.89
89. YQSYFKTIEELQQKILCDKSENAR  1.9
90. YQSYFKTIEELWQKILCSKSENAR  1.91
91. YQSYFKTIEELQQKIGCSKSENAR  1.92
92. YQSYFKTIEELQQKILCNKSENAR  1.92
93. YQSYFKTIEELQQKIFCSKSENAR  1.93
94. YQSYFKTIEELQQKSLCSKSENAR  1.93
95. YQSYFKTIEELQQKRLCSKSENAR  1.93
96. YQSYFKTIEELIQKILCSKSENAR  1.94
97. YQSYFKTIEELQQKILNSKSENAR  1.95
98. YQSYFKTIEELTQKILCSKSENAR  1.96
99. YQSYFKTIEELSQKILCSKSENAR  1.96
100. YQSYFKTIEELQQKIHCSKSENAR  1.96
101. YQSYFKTIEELYQKILCSKSENAR  1.97
102. YQSYFKTIEELQQKILCWKSENAR  1.97
103. YQSYFKTIEELQQSILCSKSENAR  1.97
104. YQSYFKTIEELVQKILCSKSENAR  1.98
105. YQSYFKTIQELQQKILCSKSENAR  1.98
106. YQSYFKTIVELQQKILCSKSENAR  1.98
107. YQSYFKTIEELQQKISCSKSENAR  2
108. YQSYFKTIEELQQKFLCSKSENAR  2
109. YQSYFKTIEELQQKILCTKSENAR  2
110. YQSYFKTIEEVQQKILCSKSENAR  2.01
111. YQSYFKTIEEEQQKILCSKSENAR  2.01
112. YQSYFKTIEALQQKILCSKSENAR  2.02
113. YQSYFKTIEEGQQKILCSKSENAR  2.02
114. YQSYFKTIEELQQFILCSKSENAR  2.02
115. YQSYFKTIEELQFKILCSKSENAR  2.04
116. YQSYFKTIEELQQKDLCSKSENAR  2.05
117. YQSYFKTIEELKQKILCSKSENAR  2.06
118. YQSYFKTIEEPQQKILCSKSENAR  2.06
119. YQSYFKTIEELDQKILCSKSENAR  2.07
120. YQSYFKTIEELQQKMLCSKSENAR  2.07
121. YQSYFKTIEELQQKILISKSENAR  2.07
122. YQSYFKTIEELQQKILCSGSENAR  2.08
123. YQSYFKTIEELQQKQLCSKSENAR  2.09
124. YQSYFKTIEELQGKILCSKSENAR  2.09
125. YQSYFKTIEELQHKILCSKSENAR  2.09
126. YQSYFKTIEENQQKILCSKSENAR  2.09
127. YQSYFKTIEELQQKIWCSKSENAR  2.1
128. YQSYFKTIENLQQKILCSKSENAR  2.1
129. YQSYFKTIEEHQQKILCSKSENAR  2.1
130. YQSYFKTIEELRQKILCSKSENAR  2.11
131. YQSYFKTIEELQQKIPCSKSENAR  2.12
132. YQSYFKTIEELQQKILCEKSENAR  2.12
133. YQSYFKTITELQQKILCSKSENAR  2.12
134. YQSYFKTIEELQQKIACSKSENAR  2.13
135. YQSYFKTIEFLQQKILCSKSENAR  2.13
136. YQSYFKTIEELQQKIICSKSENAR  2.14
137. YQSYFKTIEELQQKALCSKSENAR  2.14
138. YQSYFKTIEELQQLILCSKSENAR  2.14
139. YQSYFKTIEELQQCILCSKSENAR  2.14
140. YQSYFKTIEELQQKILRSKSENAR  2.14
141. YQSYFKTIEELQQKILASKSENAR  2.16
142. YQSYFKTIEELQQKILCRKSENAR  2.18
143. YQSYFKTIEELQQKILCMKSENAR  2.18
144. YQSYFKTIEELQNKILCSKSENAR  2.19
145. YQSYFKTIEELQQKILKSKSENAR  2.19
146. YQSYFKTIEELQQKILTSKSENAR  2.19
147. YQSYFKTIEELQLKILCSKSENAR  2.2
148. YQSYFKTIEEWQQKILCSKSENAR  2.2
149. YQSYFKTIEELQQKILCGKSENAR  2.21
150. YQSYFKTIEELQQKILCAKSENAR  2.21
151. YQSYFKTIEELQQKILCYKSENAR  2.21
152. YQSYFKTIEELQTKILCSKSENAR  2.23
153. YQSYFKTIEELQQKGLCSKSENAR  2.25
154. YQSYFKTIEELQQKILCQKSENAR  2.26
155. YQSYFKTIEVLQQKILCSKSENAR  2.28
156. YQSYFKTIEELQQHILCSKSENAR  2.28
157. YQSYFKTIEELQQMILCSKSENAR  2.28
158. YQSYFKTIEELQQKPLCSKSENAR  2.3
159. YQSYFKTIEELQQKILHSKSENAR  2.31
160. YQSYFKTIYELQQKILCSKSENAR  2.33
161. YQSYFKTIEDLQQKILCSKSENAR  2.36
162. YQSYFKTIEELQQKIKCSKSENAR  2.39
163. YQSYFKTIEPLQQKILCSKSENAR  2.39
164. YQSYFKTIEEAQQKILCSKSENAR  2.41
165. YQSYFKTIEELQQKILCIKSENAR  2.42
166. YQSYFKTIEKLQQKILCSKSENAR  2.44
167. YQSYFKTIEELQQKIRCSKSENAR  2.49
168. YQSYFKTIEELQQKILESKSENAR  2.49
169. YQSYFKTIEELQQKICCSKSENAR  2.52
170. YQSYFKTIEYLQQKILCSKSENAR  2.52
171. YQSYFKTIEELQQKHLCSKSENAR  2.52
172. YQSYFKTIEELQQKILMSKSENAR  2.54
173. YQSYFKTIEELQQKILCSESENAR  2.56
174. YQSYFKTIEELQQRILCSKSENAR  2.57
175. YQSYFKTIEELEQKILCSKSENAR  2.6
176. YQSYFKTIEGLQQKILCSKSENAR  2.6
177. YQSYFKTIEELQWKILCSKSENAR  2.6
178. YQSYFKTIEELQQKILCCKSENAR  2.65
179. YQSYFKTIEQLQQKILCSKSENAR  2.69
180. YQSYFKTIEELAQKILCSKSENAR  2.78
181. YQSYFKTIEELQQQILCSKSENAR  2.78
182. YQSYFKTIEELQQKILLSKSENAR  2.87
183. YQSYFKTIEELQQKIVCSKSENAR  2.89
184. YQSYFKTIEELFQKILCSKSENAR  2.98
185. YQSYFKTISELQQKILCSKSENAR  2.99
186. YQSYFKTIRELQQKILCSKSENAR  2.99
187. YQSYFKTIEELQQWILCSKSENAR  3.51
188. YQSYFKTIEELQQKCLCSKSENAR  3.74
